Read-outs that look alike come from different tables or passages of the source. Where no end group is shown, it is not given here. Me3 = trimethyl-lysine

Experiment [1] deals with C9 Fab (rabbit). Briefly: SPR; Biacore T200; each Fab immobilised on a CM5 chip by amine coupling; increasing concentrations of free peptide injected; running buffer PBS with 0.005% Tween 20; global fit, steady-state analysis where dissociation was fast. A general note: In SPR one partner is held on a chip, and binding of the other changes the refractive index at the surface.
C9 Fab (rabbit), sequence (heavy, as listed by the source, chain 1 of 2): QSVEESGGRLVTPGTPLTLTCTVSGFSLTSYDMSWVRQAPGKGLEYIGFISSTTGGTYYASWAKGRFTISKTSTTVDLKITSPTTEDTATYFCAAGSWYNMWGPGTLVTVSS
C9 Fab (rabbit), sequence (light, as listed by the source, chain 2 of 2): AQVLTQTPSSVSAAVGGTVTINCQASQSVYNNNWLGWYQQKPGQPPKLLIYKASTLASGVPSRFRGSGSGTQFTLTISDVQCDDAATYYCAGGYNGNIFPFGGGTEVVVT

Experiment [2] deals with D6 Fab (rabbit). The experiment is described as above.
D6 Fab (rabbit), sequence (heavy, as listed by the source, chain 1 of 2): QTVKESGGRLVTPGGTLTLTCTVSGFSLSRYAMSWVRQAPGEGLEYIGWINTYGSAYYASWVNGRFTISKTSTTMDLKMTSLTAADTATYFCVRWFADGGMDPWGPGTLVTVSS
D6 Fab (rabbit), sequence (light, as listed by the source, chain 2 of 2): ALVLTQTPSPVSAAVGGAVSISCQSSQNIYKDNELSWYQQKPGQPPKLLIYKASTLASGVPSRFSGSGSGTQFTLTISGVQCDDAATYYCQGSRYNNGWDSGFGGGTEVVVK
The target in experiment [3] is E6 Fab (rabbit). The experiment is described as above.
E6 Fab (rabbit), sequence (heavy, as listed by the source, chain 1 of 2): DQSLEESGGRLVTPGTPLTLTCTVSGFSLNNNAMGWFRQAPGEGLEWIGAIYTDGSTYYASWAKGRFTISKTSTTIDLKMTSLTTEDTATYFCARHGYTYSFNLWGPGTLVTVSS
E6 Fab (rabbit), sequence (light, as listed by the source, chain 2 of 2): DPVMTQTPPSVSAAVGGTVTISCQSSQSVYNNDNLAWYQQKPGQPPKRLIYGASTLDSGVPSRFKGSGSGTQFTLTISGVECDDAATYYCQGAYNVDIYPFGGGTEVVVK
Experiment [4] has as its target F9 Fab (rabbit). Described as above.
The target of experiment [5] is Fab C9 (rabbit). In words: SPR; Biacore T200; each Fab immobilised on a CM5 chip by amine coupling; peptides injected at increasing concentrations; running buffer PBS with 0.005% Tween 20; global fitting of the curves, or steady-state analysis where kinetic parameters could not be determined (fast dissociation, low affinity).
In experiment [6] the target is Fab D6 (rabbit). The description is as above.
Experiment [7] addresses Fab E10 (rabbit). Described as above.
In experiment [8] the target is Fab E6 (rabbit). The description is as above.
The target in experiment [9] is Fab F9 (rabbit). The description is as above.
Fab F9 (rabbit), sequence (heavy, as listed by the source, chain 1 of 2): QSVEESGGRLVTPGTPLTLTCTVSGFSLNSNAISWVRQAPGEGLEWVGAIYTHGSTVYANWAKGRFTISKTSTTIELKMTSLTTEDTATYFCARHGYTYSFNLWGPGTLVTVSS
Fab F9 (rabbit), sequence (light, as listed by the source, chain 2 of 2): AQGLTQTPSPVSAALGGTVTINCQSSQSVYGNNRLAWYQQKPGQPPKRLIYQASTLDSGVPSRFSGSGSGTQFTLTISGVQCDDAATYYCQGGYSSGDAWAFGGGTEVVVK
Experiment [10] has as its target Fab E10 (rabbit). The description is as above. The source holds these as a separate data set.
The target of experiment [11] is F9, C9, E6, and D6. Briefly: SPR; Biacore T200; each Fab immobilised on a CM5 chip by amine coupling; increasing concentrations of free peptide injected; running buffer PBS with 0.005% Tween 20; global fit, steady-state analysis where dissociation was fast.
In experiment [12] the target is Fab C9 (rabbit). In words: SPR; Biacore T200; each Fab immobilised on a CM5 chip by amine coupling; peptides injected at increasing concentrations; running buffer PBS with 0.005% Tween 20; global fitting of the curves, or steady-state analysis where kinetic parameters could not be determined (fast dissociation, low affinity). The source holds these as a separate data set.

The target of experiment [13] is Fab D6 (rabbit). The description is as above. This is another data set of the same source.

As usually defined, the Kd is the constant that tells how readily two partners part at equilibrium. A higher Kd goes with weaker binding. A word on the koff: it is the first-order rate constant of dissociation. High values mean a short-lived complex, low ones a long-lived complex. As usually defined, the kon is a measure of how fast the partners come together. High values mean faster complex formation, low ones slower complex formation. As for NPIFEKFGK(Me3)GGTYP [Methylated MAP3K2 peptide, …(me3)GGTYP], the Kd in experiment [1] was found to be 14 nM; in [2], 54 nM; in experiment [3], 0.9 nM; in experiment [4], 300 nM; in experiment [7], 37 µM; in experiment [10] it was 39 µM. For the same molecule, the fold difference in association rate constant against F9 in experiment [3] is > 100 fold. For the same molecule, the dissociation rate constant (koff) in [5] was 0.006 s⁻¹; in experiment [6], 0.096 s⁻¹; in experiment [8], 0.0029 s⁻¹; in experiment [9], 0.098 s⁻¹. In addition, the association rate constant (kon) came to 480000 M⁻¹ s⁻¹ in experiment [5], 1.9e+06 M⁻¹ s⁻¹ in experiment [6], 3.4e+06 M⁻¹ s⁻¹ in experiment [8] and 330000 M⁻¹ s⁻¹ in experiment [9].
NPIFEKFGK(Me3)GGTYP-NH2 [Methylated MAP3K2 peptide in which the C terminus was amidated]: the Kd in [5] stood at 0.0111 µM; in experiment [6], 0.0591 µM.
For the molecule NPIFEKFGKGGTYP [MAP3K2 peptide, …], the dissociation constant Kd in experiment [11] was found to be 300 nM; in [5] it was 440 µM; in experiment [6] it was 140 µM; in [7], 40 µM; in [12] it was 690 µM; in [13], 180 µM. The dissociation constant (Kd) in experiment [10] was 36 µM.
